Assay: soluble fraction after stress (log2 fold change); higher = more stays soluble; pooled small domains, quantitative proteomics
Conditions: stress: pH 4
Method in brief: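 Aggregation propensity here comes from the fold change in the soluble amount of each small protein domain after acid stress, measured in pooled custom libraries by high-throughput quantitative proteomics. The acid stress was pH 4. On the log2 scale, higher values mean more of the domain stayed soluble.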
With “HMKPVTNHTVKFYVDDVLWKTVTVKHGGNVRLADLPMSDGKTFVGWSESVVNVTKDLTVFALFS” the “soluble fraction (log2)” value was -0.478.
With “HMKPVYNKVEIPRGGEYALVLSDGTKVHLNSMSSLRFPVAFTTGKREVELQGEAYFEVSKTGQPFIVNV” the “soluble fraction (log2)” value was 0.22.
For “HMKQGKGIIVVDGKLMPEDFNVATLSLDEVESITVLKGEKAVALYGEKAKEREVLLITTQKG”, the “soluble fraction (log2)” value was -0.316.
In the case of “HMKQKAEVIFVSKTIMEALSKGVRLTPENLKSETELPIDDFYARLKELIDNGSVVESRENGESYLEAGN”, the “soluble fraction (log2)” value is reported as -0.938.
In the case of “HMKQLNKRQDDILSLAEKEGYVSVENLAKTFTVSQQTIRRDINYLSDHEFLVRTHGGAFYSSG”, the “soluble fraction (log2)” value is reported as -0.288.
For “HMKQNNYATKKELNFFVSRLISLLSYRDFFNPIEKKESMINNIEAIFTRSSLTSQELRTLHGIISNLVE”, the “soluble fraction (log2)” value was -1.27.
For “HMKQPNSYGSVHKLPGKRRKPWRVRKTSGWLLDEQSGTVKQQYITIGYYATKQEALIALADYNENP”, the “soluble fraction (log2)” value was -0.434.
For “HMKQQFTREQIIELMYKAYKKHKKKLNRVEIKKEKALPSYVTIGRYLNETSIKKIWEIVLSEKE”, the “soluble fraction (log2)” value was -0.388.
For “HMKQVEVESVIGKSEEAANSILTKAGLKVNIGYKEDSSKPTDTVLSQDPAPGEKVDEGTTVTIVVNNYKKP”, the “soluble fraction (log2)” value was -0.127.
With “HMKRANGTGSVFKLNGKRRNPWVARVTQGFDDKGRQKYVNLGYYKTKREAENELLSYNSNPYDAN” the “soluble fraction (log2)” value was -0.0271.
For “HMKREWKDDDPTVPAGWKVAWTTTSDNRAKIAFMSPDKKIFHSRKSALQHMLAAGTYAQSDIEKMTKGL”, the “soluble fraction (log2)” value was 0.377.
With “HMKRFSPPSIEEVDSYIREKGYTVDAERFVNFYESKGWYVGKNKMKNWRAAVATWQKEDNKRN” the “soluble fraction (log2)” value was -0.0455.
In the case of “HMKRGDAYASEMIARLKEAHLIVMEGTLYPLLTRLKNDGLLSYRWEESTQGPPRKYYSITPVG”, the “soluble fraction (log2)” value is reported as -0.081.
For “HMKRITGHLTEKNKKWYAVINLYDTDGKRKEKWQGLNLDANKGNKREAEHRLRQILDQYNTD”, the “soluble fraction (log2)” value was 0.125.
In the case of “HMKRITKKQLSQQLEQFFSSQPGKKLTLKDIFRALHLDTHPLKMLAMDIMEEMAWDDFITKKGENAYQLNT”, the “soluble fraction (log2)” value is reported as -0.725.
With “HMKRKAIDQSWQPDKEAIEILSKAGVNEEFIKEEIPEFILYWSEKGEESDTWNSKFIAQVRRQWAKTQH” the “soluble fraction (log2)” value was 0.248.
For “HMKRQATLQIGSKRFGMDDLYFKFTVPFEDSEKLGTATIEAYNLSPATRNSIKKGMPIILNAGYEGDI”, the “soluble fraction (log2)” value was -0.103.
With “HMKRTMVEAAMVAKLFNLTVRRIQQLTQDGVLTTELVDKKRRYDLLLTVQKYIAYLQEKVAK” the “soluble fraction (log2)” value was ≥ 0.43.
In the case of “HMKRVVFFNGISWYHRTKELLDDMTTKYGKKGGFATPEEAEKSYWEYEERYKDRQRELQVAYLKN”, the “soluble fraction (log2)” value is reported as -0.913.
With “HMKSDEGEIKKIVEEIISKNASVVEDYKKGKEVALQFLVGQGMKATKGSANPELLKKIILENI” the “soluble fraction (log2)” value was -0.105.
For “HMKSDVVFDITDGTVKAMLKFNRSDVTILNNDGKNYYLFTANGEFTFKYQDGSGEYYEKTVYVDWLEDE”, the “soluble fraction (log2)” value was -1.56.
In the case of “HMKSFIWKQYTVQITKKNVKNTNVRIKRDNPHVILMSIPYSATYKAGLLALETPHIRHWLDNYERKLKQ”, the “soluble fraction (log2)” value is reported as 0.0309.
With “HMKSIEVPNLINMTLRKAKIELIDNEFNLDTVIYEYNPNIREGRVSLQIPESGTILKSGSNISIHISKGIP” the “soluble fraction (log2)” value was -0.32.
With “HMKSIPKIKWNSTLENIKNFEYQDNFFESKEMYDLLVSFYKYGFVIIKNIPTNNNFIVKFANSIGS” the “soluble fraction (log2)” value was 0.121.
In the case of “HMKSISMANGNVQLRINGVLASSLEVAALSPEDIKRVEYHDNPGLRYGEGIDIVLDYITIKRT”, the “soluble fraction (log2)” value is reported as -1.16.
In the case of “HMKSISMSKLRHLLQLYVQGRSKKLISEQTGIARNTLKKYIKEFSEAGLSLEALLALSDKELEDLFVK”, the “soluble fraction (log2)” value is reported as 0.282.
With “HMKSLPQKLLAYLESQGLTRDEAGEFVKQGLKITSNDVDQIQLLLANTEVIDIKLQEFIAQK” the “soluble fraction (log2)” value was -0.549.
With “HMKSLVDLEISIVKKDMNYFVLPKINGEPLLMERISASEYKDFQLGKLSKEDIFQKHYPDYSEENIKNGRG” the “soluble fraction (log2)” value was 0.19.
In the case of “HMKSSISKNWNPSKDAIEILTRAGIDQEFLENLIPEFVIYWIERSDVLISYNSKFIEHARLKWAQHTAEIQ”, the “soluble fraction (log2)” value is reported as -0.106.
With “HMKSTPMYATAIVNIRSKAGTDSEILGKLNPSEEISVISSENGWSKVSYNGKEAYISSNYLSNAKP” the “soluble fraction (log2)” value was 0.22.
In the case of “HMKSVFQPIYEDLLSRIQDGRLLPGMPLPSENALAVQYGTSRPTIRRAIGLLVEKSLVIRQPGIGSIVAS”, the “soluble fraction (log2)” value is reported as -0.493.
For “HMKTALQENVRAYRLERKWTQQALAEALEVSVGAVSKWESGVSRPELETLMRLAELFGVSTDALLGF”, the “soluble fraction (log2)” value was -1.09.
For “HMKTAWDELNEVIEAYRGQESALIEVLHKAQEIMGYLPRDVQEAIAEGLHVPLNKVYGVVSFYHHFSV”, the “soluble fraction (log2)” value was -0.204.
In the case of “HMKTERTVRVQDQHLHYTLEEKPIKNVNLRIRPDGSVYVSAPFGTSRTLIDDFVASKSKQILAIQQAQSAM”, the “soluble fraction (log2)” value is reported as 0.22.
In the case of “HMKTGIGIVEANGGLRLRSQASTSSDVLSTAHNGDNVVVIRQVGNWYLVNYNLKIGYMHSDYITFKE”, the “soluble fraction (log2)” value is reported as -1.3.
In the case of “HMKTGNIIAVSLVWKGKYYMIRMFFPSAARPSRADVQTEIEKVYPGSKLSSFSVSDYEPGQPLLQV”, the “soluble fraction (log2)” value is reported as -0.146.
In the case of “HMKTGTTGLIGEIGVVKKALTPEGKVFVHGELWRAVSKTASPEGTLVQVIKINNLVLEVEKV”, the “soluble fraction (log2)” value is reported as 0.0324.
With “HMKTILEKDQRLAKYISYLIKRKRLSPEQVIEHLKTDDHGYEKYPKSINTIYAAIDKGLIPSVTRQDM” the “soluble fraction (log2)” value was ≥ 0.43.
In the case of “HMKTKMTPELTTVIEAQIQKEWSPEQISGWLKKTHPVSVSHQRIYQHIQADRQQGGTLHQHLRQAK”, the “soluble fraction (log2)” value is reported as -0.2.
For “HMKTKTFSPGEIVKIQTRDKSWQGTILESHDPEIILLKLTTGYNIGIRENEIINAKVIEKSKKDVKDAE”, the “soluble fraction (log2)” value was 0.176.
For “HMKTKTIMSTGAREDLVKMINEYYYSKNYIITEDNRIYNTKTEKFMDDLSVKFYRGRWKVIRN”, the “soluble fraction (log2)” value was 0.0289.
For “HMKTLDATQRLKLNGEGIIVFNFGKYVDQPVVEIFKKERGYFAWMMSKDFSQQVKNIITKIHNEEILGK”, the “soluble fraction (log2)” value was -0.344.
In the case of “HMKTLKHYFASIAHEFGREEAELMLLSVFKTPFEQRLMLFMKDPALTEAQVQQLDNLVRQRKQGVPLPYIL”, the “soluble fraction (log2)” value is reported as -0.287.
With “HMKTLPADPTVKNFSYTVVDGEIYYRENSIMTQIELSDNAKGRVAGMVELRQIVNELIDQQLND” the “soluble fraction (log2)” value was -1.52.
In the case of “HMKTMEQSYIGRKIILDENVEDSALIKFEGIYWTFKSVSGPLKKGTEVEIIGIEGNKILIKNK”, the “soluble fraction (log2)” value is reported as 0.181.
In the case of “HMKTPIEFGSVYNDPVRYVIGMSIKSAESINQAIYDMMKIFGDENNMNKFDSLPDEQAVLDMVNSF”, the “soluble fraction (log2)” value is reported as -0.208.
For “HMKTRIQDLRKELGVTQSELADAVDVTRQTIISLEGGRYKASLVLAHKLAQFFHVTIEELFIFD”, the “soluble fraction (log2)” value was -0.918.
With “HMKTRNISGNHEAVWQAVRSRTQAGHPTTRAVIMDDLKAQGLNTQKFSRWLKKLVDDGSVYMDGDTIIMGK” the “soluble fraction (log2)” value was -0.12.
For “HMKTRTVVLKSAGGNKIAVIKIIKEITGLGLVEAKAVADNGGNIKENIPAEEAEAIKTQLTEAGAEVEL”, the “soluble fraction (log2)” value was -0.242.
With “HMKTRYPNVYQDEKGKFFYQIFIGTDTNGRKKLKKGRRDALGHPFSSAYQASKEAKRVQALYANVS” the “soluble fraction (log2)” value was -0.0451.
